The text below walks through data of publication PMC8666670, “Malonyl-acyl carrier protein decarboxylase activity promotes fatty acid and cell envelope biosynthesis in Proteobacteria” (The Journal of Biological Chemistry, 2021).

The target of assay [1] is MadB(D79A) (S. oneidensis). Kind of assay: not stated; dimeric structures of the MadB catalytic loop mutants, data in Table S3.
Assay [2] has as its target MadB(N45A) (S. oneidensis). The assay is described as above.
The target in assay [3] is MadB(S54A) (S. oneidensis). Described as above.
The target in assay [4] is MadB, standalone hot dog malonyl-ACP decarboxylase of Shewanella oneidensis (S. oneidensis). Nature of the assay: SEC; gel filtration chromatography of the purified recombinant protein.
The target is the same in assay [5]. Kind of assay: AUC; sedimentation analysis (methods: sedimentation velocity, 50,000 rpm, interference optics), 0.02 M Tris pH 7.5, 0.5 M NaCl, 20 °C, no reducing agents.
Assay [6] addresses MadB(T49A) (S. oneidensis). Kind of assay: not stated; dimeric structures of the MadB catalytic loop mutants, data in Table S3.
In assay [7] the target is MadB(N43A) (S. oneidensis). The description is as above.
For assay [8], the target named is MadB(H47A) (S. oneidensis). The description is as above.

The substance MadB(D79A) (enzyme) had a stoichiometry N in assay [1] of 2.

For the substance MadB(N45A) (enzyme), the stoichiometry N in assay [2] is 2.

The substance MadB(S54A) (enzyme) came in with a stoichiometry N in assay [3] of 2.

Take “MadB, standalone hot dog malonyl-ACP decarboxylase of Shewanella oneidensis (enzyme)”: the stoichiometry N in assay [4] and in assay [5] was 2 throughout.

As to MadB(T49A) (enzyme), in assay [6], the stoichiometry N came out at 2.

The substance MadB(N43A) (enzyme) yielded a stoichiometry N in assay [7] of 2.

In assay [8], MadB(H47A) (enzyme) displayed a stoichiometry N of 2.

By stoichiometry N is commonly meant the number of molecules, sites or subunits per partner or assembly.
